This is an account of results in US20160355590A1.

This assay addresses HLA-DR on Raji cells, the Lym-1 antigen (HLA-Dr10) (human). Nature of the assay: cell-based or functional assay.

The substance Lym-1 CAR (on primary human T-cells) gave a lysis of target Raji cells (LDH cytotoxicity assay) of 22%.
